The target in assay [1] is PP1^Clover (PP1γ catalytic subunit fused to the FRET donor Clover) (human) (UniProt P36873). As to the kind of experiment: FRET or BRET; binary complexes SDS22^TAMRA-PP1^Clover (SP) or PP1^Clover-I3^TAMRA (PI) lacking the other subunit, incubated with p97, p37, ATP and NIPP1 as in a3. For orientation: Bioluminescence resonance energy transfer reports proximity on the nanometre scale.

For assay [2] the target is unchanged. As to the kind of experiment: FRET or BRET; ternary complexes SDS22^TAMRA-PP1^Clover-I3 or SDS22-PP1^Clover-I3^TAMRA (160 nM); FRET while the complex is formed, lost with p97 (160 nM), p37 (480 nM), ATP (2 mM) and unlabeled NIPP1 (240 nM); p97 buffer + 2% BSA + 1 mM DTT, 30 °C.
Assay [3] shares this target. As to the kind of experiment: FRET or BRET; in vitro subunit exchange: SDS22-PP1^Clover-I3 (160 nM) with p97 (160 nM), p37 (480 nM), ATP (2 mM) and NIPP1^TAMRA (240 nM); p97 buffer + 2% BSA + 1 mM DTT, 30 °C; rise of acceptor/donor ratio.
The target of assay [4] is His-PP1γ^Clover (PP1 of the binary SP and NP complexes) (human) (UniProt P36873). As to the kind of experiment: FRET or BRET; binary complexes SDS22^TAMRA-PP1^Clover (SP) or PP1^Clover-I3^TAMRA (PI) lacking the other subunit, incubated with p97, p37, ATP and NIPP1 as in a3.

“I3^TAMRA (His-I3-LPETGGG labeled by sortase with a TAMRA Strep-tag peptide) (from UniProt O60927 1-126) (natural protein)”: the rate constant of p97-p37-mediated dissociation, binary complex without SDS22 (exponential fit of FRET) in assay [1] came out at 0.0734 min⁻¹. In addition, in assay [2], the rate constant of p97-p37-mediated dissociation (exponential fit of FRET) came out at 0.69 min⁻¹ and the rate constant of p97-p37-mediated dissociation, ternary complex (exponential fit of FRET) was 0.644 min⁻¹.
Turning to “NIPP1^TAMRA (His-NIPP1-LPETGGG labeled by sortase with a TAMRA Strep-tag peptide) (from UniProt Q12972 1-351) (natural protein)”, in assay [3], the rate constant of NIPP1 association after p97-p37-mediated release of PP1 (exponential fit of FRET) came out at 0.33 min⁻¹.

B1: SDS22^TAMRA (GGG-SDS22 labeled by sortase with a TAMRA Strep-tag peptide) (natural protein)
chain: MAAERGAGQQQSQEMMEVDRRVESEESGDEEGKKHSSGIVADLSEQSLKDGEERGEEDPEEEHELPVDMETINLDRDAEDVDLNHYRIGKIEGFEVLKKVKTLCLRQNLIKCIENLEELQSLRELDLYDNQIKKIENLEALTELEILDISFNLLRNIEGVDKLTRLKKLFLVNNKISKIENLSNLHQLQMLELGSNRIRAIENIDTLTNLESLFLGKNKITKLQNLDALTNLTVLSMQSNRLTKIEGLQNLVNLRELYLSHNGIEVIEGLENNNKLTMLDIASNRIKKIENISHLTELQEFWMNDNLLESWSDLDELKGARSLETVYLERNPLQKDPQYRRKVMLALPSVRQIDATFVRF
modifications: TAMRA on the ligated peptide (TAMRA)-…
As for B1, the rate constant of dissociation with p97-p37, binary complex without I3 (exponential fit of FRET) in assay [4] amounted to 0.0003 min⁻¹. In assay [2], the rate constant of p97-p37-mediated dissociation (exponential fit of FRET) came to 0.64 min⁻¹ and the rate constant of p97-p37-mediated dissociation, ternary complex (exponential fit of FRET) is 0.714 min⁻¹.

The record behind these values is publication PMC11388335.
